According to patent US10124035B2, “DISC-1 pathway activators in the control of neurogenesis” (Massachusetts Institute of Technology, priority 2008, dated 2018):

What was measured:
[1] = tested on: TCF reporter in 293T cells; test: TCF reporter activity in DISC1 knockdown 293T cells with Wnt3a conditional medium; assay type: cell-based; settings: 16 hours
Method: Primary neural stem cells from E14 brains were infected with control or DISC1 shRNA lentiviruses. 48 hours after to transduction, cells were treated with vehicle or SB-216763 (5 μM) for 16 hours and then pulsed with 10 μM BrdU for 2 hours. Shown is percentage of GFP and BrdU double positive cells to total GFP positive cells (n=3, p<0.05). b. […] 1.5 μg of vector or WT-DISC1 was cotransfected with 0.5 μg control or DISC1 shRNA-2, 0.1 μg TCF reporter, and 10 ng pRL-TK vector into 293T cells. 48 hours after transfection, Wnt3a conditional medium with vehicle, SB-216763, or AR-A104418 was added for another 16 hours.
• Mice. Swiss Webster pregnant female mice were purchased from Taconic (Hudson, N.Y.). • Cell Culture. AHPs were kindly provided by Dr. Gage (Lie, D. C. et al. Wnt signaling to regulates adult hippocampal neurogenesis. Nature 437, 1370-5 (2005)) and cultured under conditions described previously (Palmer, T. D., Takahashi, J. & Gage, F. H. The adult rat hippocampus contains primordial neural stem cells. Mol Cell Neurosci 8, 389-404 (1997)). Primary neural progenitors were isolated from E14 mouse embryos and cultured as described previously (Sanada, K. & Tsai, L. H. G protein betagamma subunits and AGS3 control spindle orientation and asymmetric cell fate of cerebral cortical progenitors. Cell 122, 119-31 (2005)). N2a and 293T cells were cultured in DMEM medium containing 10% FBS, L-glutamine, and penicillin/streptomycin. Wnt3a expressing L cells and untransfected L cells were obtained from ATCC (Manassas, Va.). Wnt3a conditional medium was produced according to the ATCC protocol. To induce AHP differentiation, FGF2 was removed from the culture medium and 1 μM retinoic acid/1% FBS was added to the medium for 4 days. • Reagents. Recombinant Wnt3a protein was obtained from Chemicon (Rosemont, Ill.). FGF2 was obtained from PeproTech (Rocky Hill, N.J.). Recombinant GST-GSK3β was obtained from Active Motif (Carlsbad, Calif.). Recombinant GST-β-catenin and GST-axin were obtained from Millipore (Billerica, Mass.). […]

GSK3β [2] = target: T1, GSK3β (Homo sapiens, UniProt P49841); test: GSK3β SPR (surface plasmon resonance) binding assay; settings: for percent theoretical maximal response (binding to GSK3β): concentration of 25 μM
T1 construct: GST; purchased Active Motif (Carlsbad, Calif.)
T1 sequence (P49841 whole entry): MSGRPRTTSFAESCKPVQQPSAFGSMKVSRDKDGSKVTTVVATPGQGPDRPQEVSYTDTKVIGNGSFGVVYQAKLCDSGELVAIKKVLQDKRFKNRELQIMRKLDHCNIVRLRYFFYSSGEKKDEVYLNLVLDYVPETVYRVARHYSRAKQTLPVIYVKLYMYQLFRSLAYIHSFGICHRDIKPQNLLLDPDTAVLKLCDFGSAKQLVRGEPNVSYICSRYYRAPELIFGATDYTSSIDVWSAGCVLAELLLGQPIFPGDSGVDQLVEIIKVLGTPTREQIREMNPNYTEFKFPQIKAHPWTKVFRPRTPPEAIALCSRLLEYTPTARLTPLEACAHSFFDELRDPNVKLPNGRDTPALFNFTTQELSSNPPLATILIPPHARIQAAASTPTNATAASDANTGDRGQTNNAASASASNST
Method: FIG. 16B is a schematic of overlapping 15-mer peptides that covered peptide 2 and a graph showing the ability of the peptides to bind to GSK3β.
Surface plasmon resonance (SPR) was used to determine whether peptide 2 directly binds to GSK3β. GSK3β SPR binding assays were carried out with peptide 1, peptide 2, the GSK3β inhibitor L803-MTS, and as a negative control, a peptide from the N-type calcium channel, CACNA1B (FIG. 6A). […] To identify the peptide 2 sequences that mediate this interaction with GSK3β, we designed overlapping 15-mer peptides that covered peptide 2 and tested their binding to GSK3β SPR (FIG. 16B).

GSK3β [3] = target: T1, GSK3β; test: GSK3β in vitro kinase assay (β-catenin/axin phosphorylation, Y216 autophosphorylation); assay type: biochemical; settings: for inhibition of GSK3β kinase activity by peptides / inhibition of GSK3β: in vitro kinase assay; for inhibition of GSK3β kinase activity by peptides: dose-response or comparison
Text: (§1) • Mice. Swiss Webster pregnant female mice were purchased from Taconic (Hudson, N.Y.). • Cell Culture. AHPs were kindly provided by Dr. Gage (Lie, D. C. et al. Wnt signaling to regulates adult hippocampal neurogenesis. Nature 437, 1370-5 (2005)) and cultured under conditions described previously (Palmer, T. D., Takahashi, J. & Gage, F. H. The adult rat hippocampus contains primordial neural stem cells. Mol Cell Neurosci 8, 389-404 (1997)). Primary neural progenitors were isolated from E14 mouse embryos and cultured as described previously (Sanada, K. & Tsai, L. H. G protein betagamma subunits and AGS3 control spindle orientation and asymmetric cell fate of cerebral cortical progenitors. Cell 122, 119-31 (2005)). N2a and 293T cells were cultured in DMEM medium containing 10% FBS, L-glutamine, and penicillin/streptomycin. Wnt3a expressing L cells and untransfected L cells were obtained from ATCC (Manassas, Va.). Wnt3a conditional medium was produced according to the ATCC protocol. To induce AHP differentiation, FGF2 was removed from the culture medium and 1 μM retinoic acid/1% FBS was added to the medium for 4 days. • Reagents. Recombinant Wnt3a protein was obtained from Chemicon (Rosemont, Ill.). FGF2 was obtained from PeproTech (Rocky Hill, N.J.). Recombinant GST-GSK3β was obtained from Active Motif (Carlsbad, Calif.). Recombinant GST-β-catenin and GST-axin were obtained from Millipore (Billerica, Mass.). The GSK313 inhibitor, SB-216763, AR-A104418 and His-GSK3β, were obtained from Sigma-Aldrich (Sigma-Aldrich, St. Louis, Mo.). L803-MTS was obtained from Calbiochem (San Diego, Calif.). GST-AKT1 was obtained from Cell Signaling (Beverly, Mass.). GST-CASK-1 (CASK fragment from 316-415aa), GST-CASK-2 (CASK fragment from 777-974aa), and GST-p25 proteins were kindly provided by Dr. B. A. Samuels. Mouse DISC1 peptidel (40-78aa: GYMRSTAGSG IGFLSPAVGMPHPSSAG LTGQQSQHSQS; SEQ ID NO: 1) and Mouse DISC1 peptide 2 (195-238aa, […] GERGEAEGCLPSREAE; SEQ ID NO: 2) were synthesized by Chi Scientific (Maynard, Mass.). • Antibodies. The primary antibodies used in this study were the following: rabbit anti-DISC1 C-terminal antibody, mouse and rabbit anti-GFP antibodies (Invitrogen, Carlsbad, Calif.); affinity purified rabbit anti-DISC1 antibody (Novus, Littleton, Colo.) for immunohistochemistry; mouse anti-FLAG and mouse anti-Actin antibody; mouse anti-GSK3β antibody, mouse anti-β-catenin antibody, mouse anti-pY216 GSK3β antibody, and mouse anti-nestin antibody (BD Biosciences, San Diego, Calif.); rabbit anti-[…] β-catenin antibody, rabbit anti-pS9 GSK3β antibody, and mouse anti-cyclin to D1 antibody (Cell Signaling); mouse anti-Dv12 antibody, mouse anti-HA antibody, mouse anti-GST antibody, mouse anti-ubiquitin antibody, and rabbit anti-β-catenin antibody (Santa Cruz, Santa Cruz, Calif.); mouse Tuj-1 antibody (BABCO, Harrisburg, Pa.); mouse anti-BrdU antibody (DakoCytomation, Glostrup, Denmark); guinea pig anti-doublecortin antibody (Chemicon, Rosemont, Ill.); chicken anti-GFP antibody (Ayes Labs, Tigard, Oreg.); rabbit anti-pS10 Histone H3 antibody (Upstate, Lake Placid, N.Y.). • Constructs. The sequences for shRNAs targeting DISC1 are as follows: control shRNA: 5′-CGGCTGAAACAAGAGTTGG-3′ (SEQ ID NO:3); DISC1 shRNA-1: 5′-GGCAAACACTGTGA AGT GC-3′ (SEQ ID NO:4); DISC1 shRNA-2: 5′-[…]-3′ (SEQ ID NO:5)(Kamiya A. et al. A schizophrenia-associated mutation of DISC1 perturbs cerebral cortex development. Nat. Cell Biol 7, 1167-78 (2005)). DISC1 shRNA-1 recognizes both rat and mouse DISC1. […]

[4] = tested on: neural progenitors in embryonic mouse brains; test: In utero electroporation of shRNA into E13 embryonic mouse brains; assay type: in vivo
Text: as §1

AHPs = test: Immunoblot of β-catenin and cyclin D1 in transduced AHPs; assay type: cell-based
Text: • Mice. Swiss Webster pregnant female mice were purchased from Taconic (Hudson, N.Y.). • Cell Culture. AHPs were kindly provided by Dr. Gage (Lie, D. C. et al. Wnt signaling to regulates adult hippocampal neurogenesis. Nature 437, 1370-5 (2005)) and cultured under conditions described previously (Palmer, T. D., Takahashi, J. & Gage, F. H. The adult rat hippocampus contains primordial neural stem cells. Mol Cell Neurosci 8, 389-404 (1997)). Primary neural progenitors were isolated from E14 mouse embryos and cultured as described previously (Sanada, K. & Tsai, L. H. G protein betagamma subunits and AGS3 control spindle orientation and asymmetric cell fate of cerebral cortical progenitors. Cell 122, 119-31 (2005)). N2a and 293T cells were cultured in DMEM medium containing 10% FBS, L-glutamine, and penicillin/streptomycin. Wnt3a expressing L cells and untransfected L cells were obtained from ATCC (Manassas, Va.). Wnt3a conditional medium was produced according to the ATCC protocol. To induce AHP differentiation, FGF2 was removed from the culture medium and 1 μM retinoic acid/1% FBS was added to the medium for 4 days. • Reagents. Recombinant Wnt3a protein was obtained from Chemicon (Rosemont, Ill.). FGF2 was obtained from PeproTech (Rocky Hill, N.J.). Recombinant GST-GSK3β was obtained from Active Motif (Carlsbad, Calif.). Recombinant GST-β-catenin and GST-axin were obtained from Millipore (Billerica, Mass.). The GSK313 inhibitor, SB-216763, AR-A104418 and His-GSK3β, were obtained from Sigma-Aldrich (Sigma-Aldrich, St. Louis, Mo.). L803-MTS was obtained from Calbiochem (San Diego, Calif.). GST-AKT1 was obtained from Cell Signaling (Beverly, Mass.). GST-CASK-1 (CASK fragment from 316-415aa), GST-CASK-2 (CASK fragment from 777-974aa), and GST-p25 proteins were kindly provided by Dr. B. A. Samuels. Mouse DISC1 peptidel (40-78aa: GYMRSTAGSG IGFLSPAVGMPHPSSAG LTGQQSQHSQS; SEQ ID NO: 1) and Mouse DISC1 peptide 2 (195-238aa, […] GERGEAEGCLPSREAE; SEQ ID NO: 2) were synthesized by Chi Scientific (Maynard, Mass.). • Antibodies. […]

[5] = electroporated at E13, analyzed 3 days later

COc1ccc(CNC(=O)Nc2ncc([N+](=O)[O-])s2)cc1 [AR-A014418]
TCF reporter activity in DISC1 knockdown cells [1]: rescued TCF activity in DISC1 knockdown cells to control levels
TCF reporter activity in DISC1 knockdown cells ([1]; listed as AR-A104418): rescues the TCF activation defect caused by DISC1 knockdown

peptide 3: 15-mer peptide that encompasses mDISC1 amino acids 211 to 225 (SFSFIQLSLGAAGER; listed as Mus musculus)
percent maximal binding to GSK3β (GSK3β [2]; 15-mer peptide): 238%
binding to GSK3β (GSK3β [2]; result in words): bound to GSK3β
inhibition of GSK3β kinase activity by peptides (GSK3β [3]; no single concentration): failed to inhibit GSK3β kinase activity

DISC1 shRNA-2: shRNA targeting human, rat and mouse DISC1, SEQ ID NO:5, in pLentiLox 3.7 vector (GCAGGAGGTCAGCAAGGCCTTG)
BrdU labeling ([4]; BrdU 2 hours prior to collection): 15.9±2.2%
cell cycle exit index ([4]; electroporated E13, BrdU at E15, collected E16): 66.5±13.2%
GFP+Dcx+ cells ([4]; electroporated E13, sacrificed E16, SVZ): 42.3±5.8%
GFP positive cells in the VZ/SVZ [4, 5]: 10%
GFP positive cells in the cortical plate [4, 5]: 62%
mitotic index ([4]; pH3, electroporated E13, sacrificed E15): 3.5±0.8%
reduction of Cyclin D1 levels (AHPs): 70%
β-catenin levels (AHPs): 19 % to control

peptide 2: Mouse DISC1 peptide, 195-238aa, PADIASLPGFQDTFTSSFSFIQLSLGAAGERGEAEGCLPSREAE, SEQ ID NO: 2 (listed as Mus musculus)
percent theoretical maximal response (binding to GSK3β) (GSK3β [2]): 197%
inhibition of GSK3β (GSK3β [3]; at 1 μM): did not inhibit GSK3β
inhibition of GSK3β (GSK3β [3]; at 10 μM): inhibited GSK3β
inhibition of GSK3β kinase activity by peptides (GSK3β [3]; no single concentration): inhibited GSK3β more potently than the commercial GSK3β peptide inhibitor, L803-MTS
inhibition of GSK3β kinase activity by peptides (GSK3β [3]; no single concentration, listed as DISC1 peptide 1(195-238aa)): dose-dependent
inhibition of GSK3β kinase activity by peptides (GSK3β [3]; no single concentration, listed as Peptide 195-238): inhibited GSK3β in a dose-dependent manner more potently than the commercial peptide inhibitor, L803-MTS

peptide 1: Mouse DISC1 peptide, 40-78aa, SEQ ID NO: 1, synthesized by Chi Scientific (GYMRSTAGSGIGFLSPAVGMPHPSSAGLTGQQSQHSQS; listed as Mus musculus)
percent theoretical maximal response (binding to GSK3β) (GSK3β [2]): 62%
inhibition of GSK3β (GSK3β [3]; at 80 μM): did not inhibit GSK3β
inhibition of GSK3β kinase activity by peptides (GSK3β [3]; no single concentration): did not inhibit GSK3β activity

B1: DISC1 fragment 221-355: GST-tagged mouse DISC1 protein fragment, amino acids 221-355 (protein, UniProt Q811T9 221-355, looked up, fragment)
chain: AAGERGEAEGCLPSREAEPLHQRPQEMAAEASSSDRPHGDPRHLWTFSLHAAPGLADLAQVTRSSSRQSECGTVSSSSSDTGFSSQDASSAGGRGDQGGGWADAHGWHTLLREWEPMLQDYLLSNRRQLEVTSLI
modifications: GST tag
inhibition of GSK3β autophosphorylation (Y216) (GSK3β [3]; GST-DISC1 fragments at 2 μM): started to inhibit GSK3β autophosphorylation
inhibition of GSK3β activity by DISC1 fragments (GSK3β [3]; no single concentration, dose dependence, rank): able to inhibit GSK3 activity
